Key:
[1] = system: K4 kissing-loop RNA reporter; experiment: apparent KD of K4 kissing-loop reporter; higher = weaker reporter binding; details: Eterna round: R107;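 note: bound reporter read as fluorescence of individual clusters on recovered sequencing chips by microscopy, with normalized cluster intensities fitted with a binding model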
Protocol: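 RNA-MaP round R107: designed RNA switches with theophylline, tryptophan, arginine or FMN aptamers are transcribed on-chip within common flanks. They are titrated with a labelled K4 kissing-loop RNA reporter in RNA-MaP buffer (100 mM Tris pH 7.5, 80 mM KCl, 4 mM MgCl2), without ligand or with the indicated ligand. Median apparent KD per design.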

[2] = system: MS2 coat protein; experiment: apparent KD of MS2 coat protein; designed switch direction (-1 OFF switch, 1 ON switch): -1; higher = weaker reporter binding
Outline: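 Apparent KD, taken as the median over clusters for each design, was obtained by curve-fitting normalised cluster fluorescence. Designed RNA switches had been transcribed on Illumina chips by stalled E. coli RNA polymerase and titrated with SNAP-549-labelled MS2 coat protein, doubling from 0.7 or 1.5 nM to 3 µM.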

[3] = input ligand: theophylline 20 uM
[4] = input ligand: tryptophan 2.4 mM

AAGCAGUCCCUUGUUGUCAUCGAAGAUGAACGAGGACCGGUACGGCCGCCACUCGGAGUGAUGUUCCGAAGGCUGCAAAAUAAAA [MatMod 20 - Jieux - Exclusion - Tryptophan A]
apparent KD of K4 kissing-loop reporter ([1]; input ligand: FMN 200 uM): 109 nM
apparent KD of K4 kissing-loop reporter ([1]; input ligand: arginine 13.2 mM): 112 nM
apparent KD of K4 kissing-loop reporter ([1]; input ligand: none): 116 nM
apparent KD of K4 kissing-loop reporter [1, 3]: 115 nM
apparent KD of K4 kissing-loop reporter [1, 4]: 205 nM

AAGCGUAAAAUGGCGGACAUACUGCUCCCACGAGGACCGGUACGGCCGCCACUCGAAUGCGGCAGUGAUGUUGCCGCCUUAGCGU [KL-XTryp-A19]
apparent KD of K4 kissing-loop reporter ([1]; input ligand: FMN 200 uM): 84.6 nM
apparent KD of K4 kissing-loop reporter ([1]; input ligand: arginine 13.2 mM): 77.5 nM
apparent KD of K4 kissing-loop reporter ([1]; input ligand: none): 79.1 nM
apparent KD of K4 kissing-loop reporter [1, 3]: 75.2 nM
apparent KD of K4 kissing-loop reporter [1, 4]: 76.1 nM

AAGCGUGUGGCGGCCGCCACUAGUCUCCAGUGAUGUUGGAGAGAUCACGUAAGUGAUCUCCGACAUAGGACCGGGCCAUAUGGAA [Same State - Tryptophan B (Freestyle 23)]
apparent KD of K4 kissing-loop reporter ([1]; input ligand: FMN 200 uM): 69.1 nM
apparent KD of K4 kissing-loop reporter ([1]; input ligand: arginine 13.2 mM): 125 nM
apparent KD of K4 kissing-loop reporter ([1]; input ligand: none): 186 nM
apparent KD of K4 kissing-loop reporter [1, 3]: 443 nM
apparent KD of K4 kissing-loop reporter [1, 4]: 214 nM

AAGGGCGGAACUUCCUCGCCGGAUAGAGAUACCAGCCCAGCAAAGGGCCCUUGGCAGCUCACUGACCUCAGUGAUGUUGAGGUUC [Riesrevere]
apparent KD of K4 kissing-loop reporter ([1]; input ligand: FMN 200 uM): 345 nM
apparent KD of K4 kissing-loop reporter ([1]; input ligand: arginine 13.2 mM): 241 nM
apparent KD of K4 kissing-loop reporter ([1]; input ligand: none): 301 nM
apparent KD of K4 kissing-loop reporter [1, 3]: 216 nM
apparent KD of K4 kissing-loop reporter [1, 4]: 296 nM

AAGGGCGGGACUUCCUCGCCGGAUAGAGAUACCAGCCCUGCAAAGGGCCCUUGGCAGCUCACUGACCUCAGUGAUGUUGAGGUUC [Maanveri]
apparent KD of K4 kissing-loop reporter ([1]; input ligand: FMN 200 uM): 252 nM
apparent KD of K4 kissing-loop reporter ([1]; input ligand: arginine 13.2 mM): 210 nM
apparent KD of K4 kissing-loop reporter ([1]; input ligand: none): 234 nM
apparent KD of K4 kissing-loop reporter [1, 3]: 209 nM
apparent KD of K4 kissing-loop reporter [1, 4]: 223 nM

AAGGUCACCACUACAGUGAUGUUGUGGGAGCAGGAUAUGCAGAAAUGCAGAAGGGCUCGCUCCCGGUGACCGAAUGAAACAUUCA [Omei KL FMN A SS A v5]
apparent KD of K4 kissing-loop reporter ([1]; input ligand: FMN 200 uM): 1380 nM
apparent KD of K4 kissing-loop reporter ([1]; input ligand: arginine 13.2 mM): 636 nM
apparent KD of K4 kissing-loop reporter ([1]; input ligand: none): 981 nM
apparent KD of K4 kissing-loop reporter [1, 3]: 765 nM
apparent KD of K4 kissing-loop reporter [1, 4]: 846 nM

AAGGUCACUACUACAGUGAUGUUGUAGGAGCAGGAUAUGCAGAAAUGCAGAAGGGCUCGCUCCAAGUGACCGAAUGAAACAUUCA [Omei KL FMN A SS A v2]
apparent KD of K4 kissing-loop reporter ([1]; input ligand: FMN 200 uM): 368 nM
apparent KD of K4 kissing-loop reporter ([1]; input ligand: arginine 13.2 mM): 430 nM
apparent KD of K4 kissing-loop reporter ([1]; input ligand: none): 607 nM
apparent KD of K4 kissing-loop reporter [1, 3]: 611 nM
apparent KD of K4 kissing-loop reporter [1, 4]: 482 nM

AAGGUUCGUGGAAGGAGCGCCCGUGCGACUCGUUCACUAAGUGAAGUCCGAGUGAUGUUCGGGCAGGUAGGUCGCCACGGGCAAA [Atonenge]
apparent KD of K4 kissing-loop reporter ([1]; input ligand: FMN 200 uM): 164 nM
apparent KD of K4 kissing-loop reporter ([1]; input ligand: arginine 13.2 mM): 133 nM
apparent KD of K4 kissing-loop reporter ([1]; input ligand: none): 152 nM
apparent KD of K4 kissing-loop reporter [1, 3]: 153 nM
apparent KD of K4 kissing-loop reporter [1, 4]: 153 nM

AAGUACACGAUAGUGUACACCUAGUGAUGUUAGGAUAUGCAGAUAUGCAGAAGGAGCAAGUCAUCUGACAAUAGUCGGAUGACAA [FmnAX 7 #OpenEnded #K4Early]
apparent KD of K4 kissing-loop reporter ([1]; input ligand: FMN 200 uM): 315 nM
apparent KD of K4 kissing-loop reporter ([1]; input ligand: arginine 13.2 mM): 63.2 nM
apparent KD of K4 kissing-loop reporter ([1]; input ligand: none): 89.4 nM
apparent KD of K4 kissing-loop reporter [1, 3]: 107 nM
apparent KD of K4 kissing-loop reporter [1, 4]: 80.2 nM

AAGUGUGUGGCGGCCGCCACUAGAAUCCAGUGAUGUUGGAGAUAUCACGUAAGUGAUAUCCACCAUAGGACCGGGCCAUAUAGAA [Same State - Tryptophan B (Freestyle 13)]
apparent KD of K4 kissing-loop reporter ([1]; input ligand: FMN 200 uM): 1300 nM
apparent KD of K4 kissing-loop reporter ([1]; input ligand: arginine 13.2 mM): 758 nM
apparent KD of K4 kissing-loop reporter ([1]; input ligand: none): 559 nM
apparent KD of K4 kissing-loop reporter [1, 3]: 428 nM
apparent KD of K4 kissing-loop reporter [1, 4]: 483 nM

AAGUGUGUGGCGGCCGCCACUAGAAUCCAGUGAUGUUGGAGUUAUCAUAUAAUUGAUAAUCAACAUAGGACCGGGCCAUAUAGAA [Same State - Tryptophan B (Freestyle 6)]
apparent KD of K4 kissing-loop reporter ([1]; input ligand: FMN 200 uM): 602 nM
apparent KD of K4 kissing-loop reporter ([1]; input ligand: arginine 13.2 mM): 441 nM
apparent KD of K4 kissing-loop reporter ([1]; input ligand: none): 540 nM
apparent KD of K4 kissing-loop reporter [1, 3]: 511 nM
apparent KD of K4 kissing-loop reporter [1, 4]: 416 nM

AAGUGUGUGGCGGCCGCCACUAGAAUCCAGUGAUGUUGGAGUUAUCAUGUAAAUGAUAAUCAACAUAGGACCGGGCCAUAUAGAA [Same State - Tryptophan B (Freestyle 8)]
apparent KD of K4 kissing-loop reporter ([1]; input ligand: FMN 200 uM): 630 nM
apparent KD of K4 kissing-loop reporter ([1]; input ligand: arginine 13.2 mM): 377 nM
apparent KD of K4 kissing-loop reporter ([1]; input ligand: none): 701 nM
apparent KD of K4 kissing-loop reporter [1, 3]: 441 nM
apparent KD of K4 kissing-loop reporter [1, 4]: 349 nM

AAGUGUUCUAGUGAUACCAGACAUUUCAAUUACAUUAAUAUAGCUAAGUGAUGUUUAGCAGUCCCUUGGCAGCACUAUUUCACUA [JR_SSTheophyB_Sub016]
apparent KD of K4 kissing-loop reporter ([1]; input ligand: FMN 200 uM): 130 nM
apparent KD of K4 kissing-loop reporter ([1]; input ligand: arginine 13.2 mM): 144 nM
apparent KD of K4 kissing-loop reporter ([1]; input ligand: none): 135 nM
apparent KD of K4 kissing-loop reporter [1, 3]: 149 nM
apparent KD of K4 kissing-loop reporter [1, 4]: 131 nM

AAUAAAAUCACGGCCGCCACUGAUUACCAUAUUAGGAGUGAUGUUCCUAUGACUAUAUAAUUUAACAGGACCGGGUGAAUAUUUA [JR_ExcTryptoB_Sub011]
apparent KD of K4 kissing-loop reporter ([1]; input ligand: FMN 200 uM): 105 nM
apparent KD of K4 kissing-loop reporter ([1]; input ligand: arginine 13.2 mM): 103 nM
apparent KD of K4 kissing-loop reporter ([1]; input ligand: none): 107 nM
apparent KD of K4 kissing-loop reporter [1, 3]: 106 nM
apparent KD of K4 kissing-loop reporter [1, 4]: 94.3 nM

AAUAACUAGUAUAUUUUUAAUAAUACAGAUACCAGUGAUAAUAGACACCCUUGGCAGCUGAUCGAGUGAUGUUCGUUUAUUUUAA [#11 K4 Theophylline A Same State]
apparent KD of K4 kissing-loop reporter ([1]; input ligand: FMN 200 uM): 80.2 nM
apparent KD of K4 kissing-loop reporter ([1]; input ligand: arginine 13.2 mM): 86.9 nM
apparent KD of K4 kissing-loop reporter ([1]; input ligand: none): 85 nM
apparent KD of K4 kissing-loop reporter [1, 3]: 129 nM
apparent KD of K4 kissing-loop reporter [1, 4]: 64.7 nM

AAUAAGCAUGGAAGGAGCGUAGUCCAGUGAUGUUGGAGUUAAAUACCAGUGAUGUUGGUUAUACAGGUAGGUCGCCAUAAAGCUU [Exclusion Arginine B Gf 6]
apparent KD of K4 kissing-loop reporter ([1]; input ligand: FMN 200 uM): 92.4 nM
apparent KD of K4 kissing-loop reporter ([1]; input ligand: arginine 13.2 mM): 64.8 nM
apparent KD of K4 kissing-loop reporter ([1]; input ligand: none): 89.3 nM
apparent KD of K4 kissing-loop reporter [1, 3]: 83.2 nM
apparent KD of K4 kissing-loop reporter [1, 4]: 75.4 nM

AAUAAGGUCGCCGAUACCAGCGCAGGCAGAGCAAAGCUCUGCCUGGUAGUGAUGUUACCGCGCCCUUGGCAGCGGUGGCACGACC [Omei KL Theo B SS C v5]
apparent KD of K4 kissing-loop reporter ([1]; input ligand: FMN 200 uM): 64.8 nM
apparent KD of K4 kissing-loop reporter ([1]; input ligand: arginine 13.2 mM): 27.1 nM
apparent KD of K4 kissing-loop reporter ([1]; input ligand: none): 71.3 nM
apparent KD of K4 kissing-loop reporter [1, 3]: 71.7 nM
apparent KD of K4 kissing-loop reporter [1, 4]: 85.9 nM

AAUAAGUGUCAGCGAGUGAUGUUCGACGAUACCAGACUCGAUAGAGUCCCUUGGCAGCGUAACGCAUGCCAAACUGGCACAAUAA [#SwitchBubble 8 #K4Early]
apparent KD of K4 kissing-loop reporter ([1]; input ligand: FMN 200 uM): 444 nM
apparent KD of K4 kissing-loop reporter ([1]; input ligand: arginine 13.2 mM): 444 nM
apparent KD of K4 kissing-loop reporter ([1]; input ligand: none): 611 nM
apparent KD of K4 kissing-loop reporter [1, 3]: 507 nM
apparent KD of K4 kissing-loop reporter [1, 4]: 450 nM

UUUUUUGUAGUGAGGAUAUCGUUGAGGAUGUGGAUCGAGAAGGCACAUGAGGAUCACCCAUGUUAGAUGUGGUU [JR_BMOE4_Sub083] (Eterna round: R96, puzzle: Brourd's mod of Exclusion 4)
apparent KD of MS2 coat protein ([2]; input ligand: FMN 200 uM): 363 nM
apparent KD of MS2 coat protein ([2]; input ligand: microRNA oligo, concentration not stated): 134 nM
apparent KD of MS2 coat protein ([2]; input ligand: none): 166 nM

UUUUUUGUAGUGAGGAUAUCGUUGAGGAUGUGGAUCGAGAAGGCACAUGAGGAUCACCCAUGUUAGAUGUGGUU [JR_BMOE4_Sub083] (puzzle: Brourd's mod of Exclusion 4)
apparent KD of MS2 coat protein ([2]; Eterna round: R95, input ligand: microRNA oligo, concentration not stated): 173 nM
